Assay [1] addresses RSV prefusion F (preF), subtype A (respiratory syncytial virus, subtype A, UniProt P03420 26-513). The assay is described as follows: BLI, IgG.
Assay [2] concerns the target RSV prefusion F (preF), subtype B (respiratory syncytial virus, subtype B). Description: BLI, IgG. On the technique in general: BLI is a label-free optical method that tracks binding on a fibre tip over time.
The target in assay [3] is T1, RSV postfusion F (postF), subtype A (respiratory syncytial virus subtype A, UniProt P03420 26-513).
T1 construct: also called Postfusion subtype A; F deltaFP
Description: BLI.

Assay [4] addresses T2, RSV prefusion F (preF), subtype B (respiratory syncytial virus subtype B).
T2 construct: also called Prefusion subtype B
Description: BLI, IgG.

This note sets out measurements from patent publication US20260258115A1 (MAPP BIOPHARMACEUTICAL, published 2026).

B1: ADI-20965 (antibody, V domains shown)
VH: QVQLVQSGAEVKKPGASVKVSCKASGYNFTNYGISWVRQAPGQGLEWMGWISTSNGNTHYAQKSQGRITLTTDTSTNTAYMEVRSLRSDDTAVYYCAREGPESTYDWYHFDSWGQGTLVTVSS
VL: QSVVTQPPSVSVAPGQTAKITCGGNNIGSKTVHWYQLKAGQAPVLVVYDDSDRPSGIPERFSGSNSGNTATLTIRRVEAGDEADYFCQVWESASDHWVFGGGTKLTVL
Usually Kd stands for the free concentration of one partner at which half of the binding sites on the other are occupied at equilibrium, for simple one-to-one binding. The low end stands for tighter binding, the high end for weaker binding. Consider B1, for which the Kd amounted to 0.121 nM in assay [1] and 0.533 nM in assay [2].

B2: ADI-21035 (antibody, V domains shown)
VH: EVQLVESGHEVKKPGASVKVSCKASGYTFPSYGISWVRQAPGQGLEWMGWIVPYNGNTKYAQRFQGRITMTTDSPTSTASMELRGLRSDDTAVYYCARVFGDGYSYGYEYWGQGTLVTVSS
VL: DIVLTQSPSTLSASVGDRVTITCRASQSISIWLAWYQQKPGKAPKLLIYKTSELVSGVPSRFSGSGSGTEFTLTISGLQPDDFATYYCQQGNSYSHTFGQGTKVEIK
B2: binding in assay [1] was characterised by a dissociation constant (Kd) of 10.3 nM.

B3: ADI-19493 (antibody, V domains shown)
VH: QVQLQQWGAGLLKPSETLSLTCAVYGGSFSGYYWSWIRQPPGKGLEWIGEINHSGSTNYNPSLKSRVTISVDTSKNQFSLKLSSVTAADTAVYYCARLIENTRVGEYYFDYWGQGTLVTVSS
VL: not shown
notes: full-length IgG
As to B3, the binding result in assay [3] is on record as “no binding”. The molecule also gave a dissociation constant (Kd) in assay [4] of 22.6 nM.

B4: ADI-24856 (antibody, V domains shown)
VH: QVQLVQSGAEVKKPGASVKVSCKASGYTFTSYGISWVRQAPGQGLEWMGWISAYNGNTNYAQKLQGRVTMTTDTSTSTAYMELRSLRSDDTAVYYCARAGIVVVPKYYYYMDVWGKGTTVTVSS
VL: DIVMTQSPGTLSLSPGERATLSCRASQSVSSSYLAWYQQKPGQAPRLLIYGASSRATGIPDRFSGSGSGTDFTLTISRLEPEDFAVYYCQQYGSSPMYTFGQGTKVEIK
notes: full-length IgG
Regarding B4, the binding result in assay [3] is given as “no binding”. Moreover, binding in assay [4] was put at a Kd of 4.91 nM.

B5: ADI-14366 (antibody, V domains shown)
VH: QVQLVQSGTEVKKPGASVKVSCKASGYTFNMYGVSWVRQAPGQGLEWMGWISAYNGNTNYAQKFQGRVTMTIDTSTTTAYMELRSLRSDDTAMYYCARDFQAEEPLSNWFDPWGQGTLVTVSS
VL: DIVMTQTPSSLSASVGDRVIITCRASQSISRYINWYQKKPGKAPKFLIYAVSSLGSGVPSRFSGSGSGTDFTLTISSLQPEDFATYYCQQSYSTPFTFGPGTKVDIK
notes: full-length IgG; also called Ab 34
Regarding B5, in assay [3], the binding result is on record as “no binding”. In assay [4], the Kd worked out at 18 nM.

B6: ADI-14579 (antibody, V domains shown)
VH: QVQLVQSGAEVKKPGESLKISCKVSGYSFTSYWIGWVRQMPGKGLEWMGIIYPGDSDTRYSPSFQGQVTISADKSITTAYLQWSSLKASDTAMYYCARPAHSSSWYGAFDLWGQGTTVTVSS
VL: DIQMTQSPSSLSASVGDRVTITCRASQGISNYLAWYQQKPGKVPKLLIYAASTLQSGVPSRFSGSGSGTDFTLTISSLQPEDVATYYCQKYNSAPLTFGGGTKVEIK
For B6, the Kd turned out to be 7.54 nM in assay [1] and 3.73 nM in assay [2].

B7: ADI-21048 (antibody, V domains shown)
VH: EVQLVESGAEVKKPGASVKVSCKASGYTFSSHAISWVRQAPGHGLEWMGWISVFNGNTNYAQKFQGRVTMTTDTSTSTAYMELRSLRSDDAAVYYCAREVIGVGEFYFDYWGQGTLVTVSS
VL: QSVLTQPPSVSVAPGQTARITCGGNNIGSKSVHWYQQKAGQAPVLVVYDDSDRPSGIPERFLGSNSGNTATLTISRVEAGDEADYYCQVWDSSGDFHVFGTGTKVTVL
In assay [1], B7 showed an equilibrium dissociation constant (Kd) of 0.111 nM.

B8: ADI-14392 (antibody, V domains shown)
VH: EVQLLESGAEVKKPGSSVKVSCKASGGTFSSYGISWVRQAPGQGLEWMGGIIPIFGTSNYAQKFQGRVTITADESTSTAYMELSSLRSEDTAVYYCALDSSGRARYYAMDVWGQGTTVTVSS
VL: DIQVTQSPATLSLSPGERATLSCRASQSVSSYLAWYQQKPGQAPRLLIYDASNRATGIPARFSGSGSGTDFTLTISSLEPEDFAVYYCQQRNNWPPTFGPGTKVEIK
notes: full-length IgG; also called Ab 59
For the molecule B8, the binding result in assay [3] was “no binding”. Also, in assay [4], the dissociation constant (Kd) was found to be 72.5 nM.

B9: ADI-21031 (antibody, V domains shown)
VH: EVQLVESGPGLVKPSQTLSLTCTVSGGSISNSNYFWSWIRQPAGKGLEWIGRVHSSGTTSYNPSLKSRITISVDASESQFSLNLTSVTAADTAIYYCARDSSDWGLGWYFDLWGRGTLVTVSS
VL: ETTLTQSPATLSLSPGERATLSCRASQSVTFYLAWYQHKPGQAPRLLIFDASKRATGIPARFSGSGSGTDFTLTISSLEPEDFALYYCQQRSDWPQTFGQGTKVDIK
With B9, the equilibrium dissociation constant (Kd) in assay [1] is 1.07 nM; in assay [2], 1.5 nM.

B10: ADI-24855 (antibody, V domains shown)
VH: EVQLVESGGGLVKPGGSLRLSCAASGFTFSSYSMNWVRQAPGKGLEWVSSISSSSSYIYYADSVKGRFTISRDNAKNSLYLQMNSLRAEDTAVYYCARRYCTNGVCYDAFDIWGQGTMVTVSS
VL: QSVVTQPPSVSGAPGQRVTISCTGSSSNIGAGYDVHWYQQLPGTAPKLLIYGNSNRPSGVPDRFSGSKSGTSASLAITGLQAEDEADYYCQSYDSSLSYVFGTGTKVTVL
notes: full-length IgG
Consider B10, for which the binding result in assay [3] was “no binding”. This molecule displayed a Kd in assay [4] of 28 nM.

B11: ADI-25565 (antibody, V domains shown)
VH: EVQLVESGGGLVKPGGSLRLSCAASGFTFSSYSMNWVRQAPGKGLEWVSSISSSSSYIYYADSVKGRFTISRDNAKNSLYLQMNSLRAEDTAVYYCARIRFDYGSGSYAFDIWGQGTMVTVSS
VL: QPVLTQPPSVSGAPGQRVTISCTGSSSNIGAGYDVHWYQQLPGTAPKLLIYGNSNRPSGVPDRFSGSKSGTSASLAITGLQAEDEADYYCQSYDSSLSGSVFGGGTKLTVL
notes: full-length IgG
As for B11, the binding result in assay [3] is given as “no binding”. This molecule had a Kd in assay [4] of 35.7 nM.

B12: ADI-24861 (antibody, V domains shown)
VH: QVQLVQSGGGLVKPGGSLRLSCAASGFTFSSYSMNWVRQAPGKGLEWVSSISGGSSYIYYADSVKGRFTISRDNAKNSLYLQMNSLRAEDTAVYYCAREAYYYDSSGLKWFDPWGQGTLVTVSS
VL: QSVLTQPPSVSGAPGQRVTISCTGSSSNIGAGYDVHWYQQLPGTAPKLLIYGNSNRPSGVPDRFSGSKSGTSASLAITGLQAEDEADYYCQSYDSSLGWVFGGGTKLTVL
notes: full-length IgG
As to B12, in assay [3], the binding result is “no binding”. The same molecule yielded an equilibrium dissociation constant (Kd) in assay [4] of 0.461 nM.

B13: ADI-25577 (antibody, V domains shown)
VH: QVTLKESGGGLVKPGGSLRLSCAASGFTFSSYSMNWVRQAPGKGLEWVSSISSSSSYIYYADSVKGRFTISRDNAKNSLYLQMNSLRAEDTAVYYCARYSSSLGAFDIWGQGTMVTVSS
VL: QSALTQPPSVSGAPGQRVTISCTGSSSNIGAGYDVHWYQQLPGTAPKLLIYGNSNRPSGVPDRFSGSKSGTSASLAITGLQAEDEADYYCQSYDSSLSDVFGTGTKLTVL
notes: full-length IgG
B13: the binding result in assay [3] is given as “no binding”. The same molecule gave a Kd in assay [4] of 44.2 nM.

B14: ADI-21009 (antibody, V domains shown)
VH: QVQLVQSGAEMKTPGASVKVSCKASGYSFSNYGFTWVRQAPGQGLEWMGWISGYSAKTNYAQDLQGRVTMTIDTSTSTSYMELRSLRSDDTAVYYCARDPLGYFGSGTYRGGAFDFWGQGTTVTVSS
VL: QSALTQPASVSGSPGQSITLSCTGTNNDVGSYHLVSWYQQYPGKAPKLVIYEVTKRPSGVSNRFSGSKSGNTASLTISGLQPEDEADYYCCSYAGDRRIFGGGTKVTVL
notes: also called Ab 260
With B14, the figures for the dissociation constant (Kd) in assay [1] and in assay [2] were 4.88 nM and 19.5 nM, respectively.

B15: ADI-20994 (antibody, V domains shown)
VH: QVQLVQSGAEVKKPGASVKVSCKASGYTFSSNVIGWVRQAPGQGLEWMGWISTNNGNTKYGQKFQGRVTMTTDPSTSTAYMELRSLRSDDTAFYYCARESLGMGGFYFDYWGQGTLVTVSS
VL: QPVLTQPPSVSVAPGQTARITCGGDNIGSKSVHWYQQKPGQAPVLVVYDDSDRPSGIPERFSGSNSGNTASLTISRVEAGDEADYCCQVWDSGSDLWVFG
B15: the figures for the dissociation constant (Kd) in assay [1] and in assay [2] were 0.0894 nM and 0.109 nM, respectively.

B16: ADI-19467 (antibody, V domains shown)
VH: EVQLVESGGGLVKPGGSLRLSCAASGFTFSSYSMNWVRQAPGKGLEWVSSISSSSSYIYYADSVKGRFTISRDNAKNSLYLQMNSLRAEDTAVYYCASLSSSSELGYYFDYWGQGTLVTVSS
VL: QPVLTQPPSVSGAPGQRVTISCTGSSSNIGAGYDVHWYQQLPGTAPKLLIYGNSNRPSGVPDRFSGSKSGTSASLAITGLQAEDEADYYCQSYDSSLSGYVFGTGTKLTVL
notes: full-length IgG
For B16, the binding result in assay [3] is listed as “no binding”. In assay [4], this molecule displayed a Kd of 37.7 nM.

B17: ADI-25559 (antibody, V domains shown)
VH: EVQLLESGGGLVKPGGSLRLSCAASGFTFSSYSMNWVRQAPGKGLEWVSSISSSSSYIYYADSVKGRFTISRDNAKNSLYLQMNSLRAEDTAVYYCARDAAAKYYFDYWGQGTLVTVSS
VL: QPVLTQPPSVSGAPGQRVTISCTGSSSNIGAGYDVHWYQQLPGTAPKLLIYGNSNRPSGVPDRFSGSKSGTSASLAITGLQAEDEADYYCQSYDSSLSGKVFGTGTKLTVL
notes: full-length IgG
On to B17, for which, in assay [3], the binding result is recorded as “no binding”. In assay [4], the affinity, expressed as Kd, was 33.3 nM.

B18: ADI-14575 (antibody, V domains shown)
VH: QVQLVQSGAEVKKPGSSVKVSCKASGGTFSSYTISWVRQAPGQGLEWMGRIIPILGIANYAQKFQGRVTITADKSTSTAYMELSSLRSEDTAVYYCARPSSSSFAFDYWGQGTLVTVSS
VL: QSVLTQPASVSGSPGQSITISCTGTSSDVGGYNYVSWYQQHPGKAPKLMIYDVSNRPSGVSNRFSGSKSGNTASLTISGLQAEDEADYYCSSYTSSSTPVVFGGGTKVTVL
With B18, the affinity in assay [1], expressed as Kd, was 11.2 nM.

B19: ADI-21060 (antibody, V domains shown)
VH: EVQLVESGGGLVKPGGSLRLSCEASGFRLSDYYMTWIRQAPGKGLECISYISGGSTFKSYSDSVKGRFTISRDNTNLYLQMNSLRVEDTAVYYCARAPYLIYYMDVWGKGTTVTVSS
VL: QPVLTQPPSVSGAPGQRVSISCTGSNSNIGAGYDVHWYQQLPGTPPKLLIYDNNNRPSGVPDRFSGSKSGTSASLAITGLQAEDEADYYCQSYDNRLSGSQVLFGGGTKVTVL
In the case of B19, the values for the equilibrium dissociation constant (Kd) in assay [1] and in assay [2] were 0.426 nM and 0.349 nM, respectively.
